In US20120172295A1 (INDIANA UNIVERSITY RESEARCH AND TECHNOLOGY, published 2012):
Where two headings read alike, the source gives them in different places. Starred links: 1 amine or outer side, 2 acyl side, 3 side chain; linkers in the order of their positions; H or OH if unused. Non-standard residues stand in square brackets, D forms with d. Groups on a side chain read outwards from the residue. No end group written: not given here. *: point of attachment. Dab(Ac) = acetyldiaminobutanoic acid, CC(=O)NCC[C@H](N[*:1])C(=O)[*:2]; C(Acm) = acetamidomethyl-cysteine, CC(=O)NCSC[C@H](N[*:1])C(=O)[*:2]; Orn(Ac) = acetylornithine, CC(=O)NCCC[C@H](N[*:1])C(=O)[*:2]; γGlu = O=C(O)[C@H](CCC(=O)[*:2])N[*:1]; Dap(CONH2) = NC(=O)NC[C@H](N)C(=O)O; Stearoyl = CCCCCCCCCCCCCCCCCC(=O)*; Palmitoyl = CCCCCCCCCCCCCCCC(=O)*; Met(O) = CS(=O)CC[C@H](N)C(=O)O; Myristoyl = CCCCCCCCCCCCCC(=O)*; Nle = CCCC[C@H](N)C(=O)O; Dab = NCC[C@H](N)C(=O)O; Aib = CC(C)(N)C(=O)O; Ahx = NCCCCCC(=O)O; βAla = NCCC(=O)O

Key:
Experiment in all cases: cell-based or functional assay
GLP-1 receptor [1] = target: T1, GLP-1 receptor (UniProt P43220 24-463, limits assumed)
GLP-1 receptor [2] = target: T1, GLP-1 receptor; remark: listed apart in the source
glucagon receptor [3] = target: T2, glucagon receptor (UniProt P47871 26-477, limits assumed)
glucagon receptor [4] = target: T2, glucagon receptor; remark: listed apart in the source
glucagon receptor [5] = target: T2, glucagon receptor; remark: listed apart in the source
GLP-1 receptor [6] = target: T1, GLP-1 receptor; remark: listed apart in the source

T2 sequence (P47871 26-477 limits assumed): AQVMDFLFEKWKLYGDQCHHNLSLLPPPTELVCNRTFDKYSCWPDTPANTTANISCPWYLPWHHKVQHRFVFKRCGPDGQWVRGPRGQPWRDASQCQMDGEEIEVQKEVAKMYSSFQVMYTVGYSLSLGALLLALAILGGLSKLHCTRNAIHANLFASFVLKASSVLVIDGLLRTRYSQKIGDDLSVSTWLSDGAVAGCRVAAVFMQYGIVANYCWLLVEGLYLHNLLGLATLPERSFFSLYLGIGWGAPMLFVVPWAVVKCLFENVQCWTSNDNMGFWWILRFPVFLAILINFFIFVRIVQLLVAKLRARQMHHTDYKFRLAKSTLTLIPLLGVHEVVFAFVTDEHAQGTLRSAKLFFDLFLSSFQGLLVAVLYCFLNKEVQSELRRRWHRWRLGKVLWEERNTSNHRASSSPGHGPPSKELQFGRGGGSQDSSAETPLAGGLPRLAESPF

With H[Aib]QGTFTSDK([βAla-βAla-Palmitoyl])SKYLD[Aib]RRAQDFVQWLMNT-NH2 [Peptide 84 (SEQ ID NO: 566)] as the binder, how does the EC50 (GLP-1 receptor [1]) read?
The EC50 was 0.004 nM.

B1: AIB2, AIB16, K10(C18) Gluc Amide (peptide)
peptide: H[Aib]QGTFTSDK(Stearoyl)SKYLD[Aib]RRAQDFVQWLMNT-NH2
modifications: N-terminus assumed
SMILES: CCCCCCCCCCCCCCCCCC(=O)NCCCC[C@H](NC(=O)[C@H](CC(=O)O)NC(=O)[C@H](CO)NC(=O)[C@@H](NC(=O)[C@H](Cc1ccccc1)NC(=O)[C@@H](NC(=O)CNC(=O)[C@H](CCC(N)=O)NC(=O)C(C)(C)NC(=O)[C@@H](N)Cc1c[nH]cn1)[C@@H](C)O)[C@@H](C)O)C(=O)N[C@@H](CO)C(=O)N[C@@H](CCCCN)C(=O)N[C@@H](Cc1ccc(O)cc1)C(=O)N[C@@H](CC(C)C)C(=O)N[C@@H](CC(=O)O)C(=O)NC(C)(C)C(=O)N[C@@H](CCCNC(=N)N)C(=O)N[C@@H](CCCNC(=N)N)C(=O)N[C@@H](C)C(=O)N[C@@H](CCC(N)=O)C(=O)N[C@@H](CC(=O)O)C(=O)N[C@@H](Cc1ccccc1)C(=O)N[C@H](C(=O)N[C@@H](CCC(N)=O)C(=O)N[C@@H](Cc1c[nH]c2ccccc12)C(=O)N[C@@H](CC(C)C)C(=O)N[C@@H](CCSC)C(=O)N[C@@H](CC(N)=O)C(=O)N[C@H](C(N)=O)[C@@H](C)O)C(C)C
B1 was tested. Which “% Activity of GLP-1” value (GLP-1 receptor [2]) did it give?
The value was 88.9%.

What about the EC50 (GLP-1 receptor [2]) of the same binder?
Its EC50 is 0.009 nM.

And the “% Activity of Glucagon” value (glucagon receptor [3])?
The value was 212%.

And the EC50 (glucagon receptor [3])?
The EC50 was 0.016 nM.

What does the source list for HS[Orn(Ac)]GTFTSDYSKYLDTRRAAEFVAWL[Nle]DE [Peptide J backbone, Orn(Ac) at position 3 (SEQ ID NO: 599)]?
% activity (glucagon receptor [4]): 7%; EC50 (glucagon receptor [4]): 0.92 nM

What does the source list for HS[Dap(CONH2)]GTFTSDYSKYLDTRRAAEFVAWL[Nle]DE [Peptide J backbone, Dap(urea) at position 3 (SEQ ID NO: 596)]?
% activity (glucagon receptor [4]): 13%; EC50 (glucagon receptor [4]): 0.48 nM

With HSQGTFTSDYSKYLDTRRAAEFVAWL[Nle]DE [Peptide J backbone, Q at position 3 (SEQ ID NO: 593)] as the binder, how does the “% activity” value (glucagon receptor [4]) read?
The value was 25%.

Which “% activity” value (glucagon receptor [4]) does the source give for HS[Dab](Ac)GTFTSDYSKYLD[Aib]RRAADFVAWLMDE [Peptide K backbone, Dab(Ac) at position 3 (SEQ ID NO: 601)] here?
The value was 86%.

And the EC50 (glucagon receptor [4])?
The EC50 was 0.07 nM.

Which EC50 (GLP-1 receptor [1]) does the source give for H[Aib]QGTFTSDK([Ahx-Palmitoyl])SKYLD[Aib]RRAQDFVQWLMNT-NH2 [Peptide 85 (SEQ ID NO: 567)] here?
Its EC50 is 0.005 nM.

And the EC50 (glucagon receptor [5])?
The EC50 was 0.01 nM.

How did the EC50 (glucagon receptor [5]) turn out when H[Aib]QGTFTSDK([Ala-Ala-Palmitoyl])SKYLD[Aib]RRAQDFVC(PEG 40 kDa)WLMNT-NH2 [Peptide 79* (SEQ ID NO: 575)] was run?
Its EC50 is 0.102 nM.

For HS[Dab(Ac)]GTFTSDYSKYLDTRRAAEFVAWL[Nle]DE [Peptide J backbone, Dab(Ac) at position 3 (SEQ ID NO: 595)], which “% activity” value (glucagon receptor [4]) is on record?
The value was 19%.

And the EC50 (glucagon receptor [4])?
Its EC50 is 0.31 nM.

With H[Aib]QGTFTSDK([γGlu-γGlu-Myristoyl])SKYLD[Aib]RRAQDFVC(PEG 40 kDa)WLMNT-NH2 [Peptide 78* (SEQ ID NO: 571)] as the binder, how does the EC50 (GLP-1 receptor [1]) read?
Its EC50 is 0.103 nM.

What about the EC50 (glucagon receptor [5]) of the same binder?
The EC50 was 0.319 nM.

H[Aib]QGTFTSDK([Ala-Ala-Palmitoyl])SKYLD[Aib]RRAQDFVQWLMNT-NH2 [Peptide 82 (SEQ ID NO: 564)] was tested. Which EC50 (GLP-1 receptor [1]) did it give?
The EC50 was 0.108 nM.

What about the EC50 (glucagon receptor [5]) of the same binder?
The EC50 was 0.024 nM.

B2: Peptide 83 (SEQ ID NO: 565) (peptide)
peptide: H[Aib]QGTFTSDK([γGlu-γGlu-Palmitoyl])SKYLD[Aib]RRAQDFVQWLMNT-NH2
modifications: N-terminus assumed
SMILES: CCCCCCCCCCCCCCCC(=O)N[C@@H](CCC(=O)N[C@@H](CCC(=O)NCCCC[C@H](NC(=O)[C@H](CC(=O)O)NC(=O)[C@H](CO)NC(=O)[C@@H](NC(=O)[C@H](Cc1ccccc1)NC(=O)[C@@H](NC(=O)CNC(=O)[C@H](CCC(N)=O)NC(=O)C(C)(C)NC(=O)[C@@H](N)Cc1c[nH]cn1)[C@@H](C)O)[C@@H](C)O)C(=O)N[C@@H](CO)C(=O)N[C@@H](CCCCN)C(=O)N[C@@H](Cc1ccc(O)cc1)C(=O)N[C@@H](CC(C)C)C(=O)N[C@@H](CC(=O)O)C(=O)NC(C)(C)C(=O)N[C@@H](CCCNC(=N)N)C(=O)N[C@@H](CCCNC(=N)N)C(=O)N[C@@H](C)C(=O)N[C@@H](CCC(N)=O)C(=O)N[C@@H](CC(=O)O)C(=O)N[C@@H](Cc1ccccc1)C(=O)N[C@H](C(=O)N[C@@H](CCC(N)=O)C(=O)N[C@@H](Cc1c[nH]c2ccccc12)C(=O)N[C@@H](CC(C)C)C(=O)N[C@@H](CCSC)C(=O)N[C@@H](CC(N)=O)C(=O)N[C@H](C(N)=O)[C@@H](C)O)C(C)C)C(=O)O)C(=O)O
With B2 as the binder, how does the EC50 (GLP-1 receptor [1]) read?
Its EC50 is 0.043 nM.

With HSQGTFTSDYSKYLD[Aib]RRAADFVAWLMDE [Peptide K backbone, Q at position 3 (SEQ ID NO: 600)] as the binder, how does the “% activity” value (glucagon receptor [4]) read?
The value was 15%.

Which results are given for HAEGTFTSDVSSYLEGQAAKEFIAWLVKGG-NH2 [GLP-1-VKGG30 (SEQ ID NO: 527)]?
EC50 (GLP-1 receptor [6]): 0.025 nM; Relative Potency (%) (GLP-1 receptor [6]): 100%

B3: Peptide 26 (SEQ ID NO: 637) (peptide)
peptide: H[Aib]QGTFTSDYSKYLD[Aib]RRAQDFVQWLMNT-NH2
modifications: N-terminus assumed
SMILES: CSCC[C@H](NC(=O)[C@H](CC(C)C)NC(=O)[C@H](Cc1c[nH]c2ccccc12)NC(=O)[C@H](CCC(N)=O)NC(=O)[C@@H](NC(=O)[C@H](Cc1ccccc1)NC(=O)[C@H](CC(=O)O)NC(=O)[C@H](CCC(N)=O)NC(=O)[C@H](C)NC(=O)[C@H](CCCNC(=N)N)NC(=O)[C@H](CCCNC(=N)N)NC(=O)C(C)(C)NC(=O)[C@H](CC(=O)O)NC(=O)[C@H](CC(C)C)NC(=O)[C@H](Cc1ccc(O)cc1)NC(=O)[C@H](CCCCN)NC(=O)[C@H](CO)NC(=O)[C@H](Cc1ccc(O)cc1)NC(=O)[C@H](CC(=O)O)NC(=O)[C@H](CO)NC(=O)[C@@H](NC(=O)[C@H](Cc1ccccc1)NC(=O)[C@@H](NC(=O)CNC(=O)[C@H](CCC(N)=O)NC(=O)C(C)(C)NC(=O)[C@@H](N)Cc1c[nH]cn1)[C@@H](C)O)[C@@H](C)O)C(C)C)C(=O)N[C@@H](CC(N)=O)C(=O)N[C@H](C(N)=O)[C@@H](C)O
What does the source list for B3?
EC50 (GLP-1 receptor [1]): 0.475 nM; EC50 (glucagon receptor [5]): 0.653 nM

How did the “% Activity of GLP-1” value (GLP-1 receptor [2]) turn out when HXQGTFTSDKSKYLDERRAKDFVQWLMNT (d-Ser at 2; Lys 10-C16 acyl; C-terminal amide) [dS2, E16/K20, K10(C16) Gluc Amide] was run?
Its value is 19.5%.

And the EC50 (GLP-1 receptor [2])?
The EC50 was 0.041 nM.

What about the “% Activity of Glucagon” value (glucagon receptor [3]) of the same binder?
The value was 44.7%.

What about the EC50 (glucagon receptor [3]) of the same binder?
Its EC50 is 0.076 nM.

For HSQGTFTSDYSKYLDERRAKDFVQWLMDGGPSSGAPPPS-NH2 [E16K20-MDGG30 PSSGAPPPS (SEQ ID NO: 526)], which EC50 (GLP-1 receptor [6]) is on record?
Its EC50 is 0.02 nM.

Which results are given for H[Aib]QGTFTSDK([Ala-Ala-Myristoyl])SKYLD[Aib]RRAQDFVC(PEG 40 kDa)WLMNT-NH2 [Peptide 81* (SEQ ID NO: 573)]?
EC50 (GLP-1 receptor [1]): 0.271 nM; EC50 (glucagon receptor [5]): 0.597 nM

What does the source list for H[Aib]QGTFTSDK(Myristoyl)SKYLD[Aib]RRAQDFVC(PEG 40 kDa)WLMNT-NH2 [Peptide 77* (SEQ ID NO: 570)]?
EC50 (GLP-1 receptor [1]): 1.46 nM; EC50 (glucagon receptor [5]): 21.9 nM

Which results are given for HXQGTFTSDKSKYLDERRAKDFVQWLMNT (d-Ser at 2; Lys 10-C14 acyl; C-terminal amide) [dS2, E16/K20, K10(C14) Gluc Amide]?
% Activity of GLP-1 (GLP-1 receptor [2]): 6.3%; EC50 (GLP-1 receptor [2]): 0.128 nM; % Activity of Glucagon (glucagon receptor [3]): 21.9%; EC50 (glucagon receptor [3]): 0.155 nM

With H[Aib]QGTFTSDK([Leu-Leu-Palmitoyl])SKYLD[Aib]RRAQDFVQWLMNT-NH2 [Peptide 86 (SEQ ID NO: 568)] as the binder, how does the EC50 (GLP-1 receptor [1]) read?
The EC50 was 0.006 nM.

With HS[Met(O)]GTFTSDYSKYLDTRRAAEFVAWL[Nle]DE [Peptide J backbone, M(O) at position 3 (SEQ ID NO: 598)] as the binder, how does the “% activity” value (glucagon receptor [4]) read?
Its value is 7%.

And the EC50 (glucagon receptor [4])?
Its EC50 is 0.91 nM.

H[Aib]QGTFTSDK([γGlu-γGlu-Palmitoyl])SKYLD[Aib]RRAQDFVC(PEG 40 kDa)WLMNT-NH2 [Peptide 80* (SEQ ID NO: 576)] was tested. Which EC50 (glucagon receptor [5]) did it give?
Its EC50 is 0.108 nM.

What does the source list for H[Aib]QGTFTSDK([Pro-Pro-Palmitoyl])SKYLD[Aib]RRAQDFVQWLMNT-NH2 [Peptide 87 (SEQ ID NO: 569)]?
EC50 (GLP-1 receptor [1]): 0.009 nM; EC50 (glucagon receptor [5]): 0.017 nM

For HS[C(Acm)]GTFTSDYSKYLDTRRAAEFVAWL[Nle]DE [Peptide J backbone, C(Acm) at position 3 (SEQ ID NO: 594)], which “% activity” value (glucagon receptor [4]) is on record?
The value was 33%.

What about the EC50 (glucagon receptor [4]) of the same binder?
Its EC50 is 0.18 nM.

Which “% Activity of GLP-1” value (GLP-1 receptor [2]) does the source give for HXQGTFTSDKSKYLDERRAKDFVQWLMNT (d-Ser at 2; Lys 10-C18 acyl; C-terminal amide) [dS2, E16/K20, K10(C18) Gluc Amide] here?
Its value is 60%.

What about the EC50 (GLP-1 receptor [2]) of the same binder?
Its EC50 is 0.025 nM.

And the “% Activity of Glucagon” value (glucagon receptor [3])?
The value was 196%.

HSQGTFTSDYSKYLDSRRAQDFVQWLMNGGPSSGAPPPS-NH2 [MNGG30 PSSGAPPPS (SEQ ID NO: 522)] was tested. Which EC50 (GLP-1 receptor [6]) did it give?
The EC50 was 0.31 nM.

What about the “Relative Potency (%)” value (GLP-1 receptor [6]) of the same binder?
Its value is 8%.
